Data taken from the DeepSol protein solubility set.

Test: soluble on expression in E. coli; label from the status in PepcDB or PDB records

Sequence: MLHTTDFSDIFSSDYSSKVSFKKGDIIHSFKDYEKKPPQIGVILEGTAVLEGPTNEGRWMINALISENAIFGMESLLETKTAPELTEYRVRALENGRALFIDREFFLNYLYANPHFFHLVLDDVIVRYLFTAKNYKNINQPPIIKVTRIFVEIIELLNLHQTEGPIVLPSYITQTFLADYCRSSRARITESLEELLVNGLLASKKPITISSHEKLLDQIDSFQTGNGLLTK
- soluble on expression in E. coli: not soluble

Sequence: MKMDTGALTFQQKIYWLVKQIPLGRVATYGQIAALCGWPRHGRYVGYALYRVAPNSDIPWHRVVNAQGKISYAPQRRGTDELQRWRLAAEGIIFTAGLEHHHHHH
- soluble on expression in E. coli: not soluble

Sequence: MGHHHHHHSHQHLEVRDEVAEKCQKLFLDFLEEFQSSDGEIKYLQLAEELIRPERNTLVVSFVDLEQFNQQLSTTIQEEFYRVYPYLCRALKTFVKDRKEIPLAKDFYVAFQDLPTRHKIRELTSSRIGLLTRISGQVVRTHPVHPELVSGTFLCLDCQTVIRDVEQQFKYTQPNICRNPVCANRRRFLLDTNKSRFVDFQKVRIQETQAELPRGSIPRSLEVILRAEAVESAQAGDKCDFTGTLIVVPDVSKLSTPGARAETNSRVSGVDGYETEGIRGL
- soluble on expression in E. coli: not soluble

Sequence: MSLKTTFLEFEQPIAELEAKIEELRFVQDDSAVDISEEISRLAAKSQQLTKDLYATLSPWQVAQIARHPQRPYTLDYVREIFTDFHELHGDRTFADDLSIVGGLARFNGQPCMVIGHQKGRDTKERALRNFGMSKPEGYRKAKRLMELADKFGLPIFTFVDTPGAFPGIEAEERGQSEAIGHNLFVMAGLKVPLIATIIGEGGSGGALAIAVGDSVIMLQFATYAVISPEGCASILWKTAEKAPEAAEALGLTAHRLKALGLIDKIVNEPLGGAHRDPKAMATMLKRALAESLRQFQGMKTSELQARRHERLMAYGKFKETGSNEGHHHHHH
- soluble on expression in E. coli: not soluble

Sequence: MGSVAARDYVGIATKYAEAAVADKGRKRHGRWIRLAAKRFLDDLKRARRRGTPFFFDEWHANDACDFIEKLPHVEGKWETPTIVMHPSHVFFVVQLFGFRRRDAIKVEGWGDDDTFHPRRFTSALFAVARKNAKSTLASAILLYCLCCEPEEGAQVISAATTFDQASIIFRASKRMVEKTPDLAEAFGLATWAKSISRFETGSSYKAVHAKASTQDGLNPSHTGLDEIHAHKTADLLNVLQSAAGARANPLWLFTTTEGYTNAGPWAEIRGFVFALLRGVLGTQADHFLALFYALDNEDKSAKITQDDEFDESKWIKANPLLDVNPHLKAAIRKEAVEAKQMPSKLAEFRIKRCNRPASTASGWVDLTKWAKCGGAVDLDWLAGYPCWGGLDLASTTDIAAFRLLWLVEGVWYTHGWRWVPSEAVKQRTERATVPYAGWVEAGYLLQTEGDVTDYSVIERDILAAVQRFDPQQIAYDAWNAADLVNRLVAASVPMVQFVQGTKSYHPAMQALELAYVGGKLVHGGDPVLAWCASNLVARRDVNLSMAPDRKRSADKIDDMAALLMAMGLAVASDDAEDLSDFFNNAVIGLEHHHHHH
- soluble on expression in E. coli: soluble

Sequence: MVSFKAGINLGGWISQYQVFSKEHFDTFITEKDIETIAEAGFDHVRLPFDYPIIESDDNVGEYKEDGLSYIDRCLEWCKKYNLGLVLDMHHAPGYRFQDFKTSTLFEDPNQQKRFVDIWRFLAKRYINEREHIAFELLNEVVEPDSTRWNKLMLECIKAIREIDSTMWLYIGGNNYNSPDELKNLADIDDDYIVYNFHFYNPFFFTHQKAHWSESAMAYNRTVKYPGQYEGIEEFVKNNPKYSFMMELNNLKLNKELLRKDLKPAIEFREKKKCKLYCGEFGVIAIADLESRIKWHEDYISLLEEYDIGGAVWNYKKMDFEIYNEDRKPVSQELVNILARRKT
- soluble on expression in E. coli: soluble

Sequence: MRLALFDLDNTLLGGDSDHAWGDYLYQRGILDAATYKSRNDEFYQDYLAGTLNMTDYLNFTLEILGNTDMAQLQEWHREFMRDCIEPIMLPKALELIAKHREAGDKLVVITATNRFVTAPIVARLGIETLLATECEMVDGRYTGRTTGVPCFREGKVTRLNQWLEDNAFSLEDSYFYSDSMNDLPLLEQVANPVAVDPDARLRAEAEQRGWPVITLRS
- soluble on expression in E. coli: not soluble

Sequence: MGSDKIHHHHHHMEIIAHRGFWNKESEKNTLTAIKRAIDNGYGFETDYRDNNGTIVISHNMPLGNEPTAEEIFRLYRDSGTESTLALNIKADGLQELLKDMLNTYQIKKYFLFDMSIPDTIDYILDNMNIATRHSEYEKEFPFYSQSSYVWMDCFKSEWISWGNLEEHLKSGKKVCIVSPELHRRPYKEVWNKYASFNHANLMLCTDFPMEADFFFNK
- soluble on expression in E. coli: not soluble

Sequence: MNSMEHLLKQAIKLRKEKKYAQSKEILIGLTNFTRDAEVLYQCAWIHDVMGLETEAMPYYEQAIANGLEGESLCGAYIGLGSTYRCIGEYDKAITVLETGLQQFPGNDVMKVFLSLAKFNVNDHESAMKLLLETVVKLEHHHHHH
- soluble on expression in E. coli: soluble

Sequence: MRVAIALAKDDATRVYPGPFGHAPRYAIYEAGPSGELVLLEIRENPYAKAHGEEKHAKMRELLRDVDLKVGARFGHKGSLGAFPLADRVEVGPVSLEEALARLKERSSA
- soluble on expression in E. coli: soluble

Sequence: MARRNSSIKPVFCFFAEFCMVSTSLWMDTEILPEASALKGDVHCDVAVVGSGIAGLSTAYELSKRDQSVIVIDRKGIASGMTARTSAHLAPLCDDLMSEFRKLRGPEIAKLFYESQAAAVDRIEEIQASETIACDFRRLDGYLFQGHGMPADVLDEELEAVREVGAPVHRLVGVPLKGCENRHVLRYPRQATFHPLKYLAGVAAVCQTHGVRFFANSPVEEVAQGDGDVTLRTAQGQITAGNAVIATNASITDRYQLHSKVAPYRTYVLAFAIARGELPDALYWDTEDPYHYVRLQLGSDDHDVVLIGGEDHKSGEANDAEKRFAKLESWARELIPGLGRVTHRWSGQVLDTIDYAGFIGREPGSERIYLAMGDSGQGLTHGVMGAMLNTSLILGEHNPWSAVYAPGRTPLAAARNFLRENLTILQNLAEYVAPGEIASLEKIEPSEGAILRRGFEKIAAYRDKAGELHLHSASCTHIGCHLHWNSFETCWDCPCHGSIFAPNGQPINAPAVSALRPVKVLEHHHHHH
- soluble on expression in E. coli: not soluble

Sequence: MSAFFLNMEKSIITQKIIAKAFKDLMQSNAYHQISVSDIMQTAKIRRQTFYNYFQNQEELLSWIFENDFAELINDNSDYYGWQNELLLLLRYLDENQIFYQKIFVIDKNFEHFFLIQWENLLDKVIFDQEKKSDYHWSDLEKSFICRYNAAAICAITRESIIRGNSLEKLYSQIVNLLLAQIKIFESLEHHHHHH
- soluble on expression in E. coli: soluble

Sequence: MSLRILIVDDEKLTRDGLIANINWKALSFDQIDQADDGINAIQIALKHPPNVLLTDVRMPRMDGIELVDNILKLYPDCSVIFMSGYSDKEYLKAAIKFRAIRYVEKPIDPSEIMDALKQSIQTVLQHQAQQDSEGHHHHHH
- soluble on expression in E. coli: soluble

Sequence: AIACHTQVGGSMQVPEPRRPFTCSSENNVTNSFFEEAYSASFRSKLYNMVEEIEQERAKYCNSANLSYMDAFGVEKESIEEDYNKEEDRDSLCSVDIADNSETSNRSSEDLLCDNCSKSLMFLNNVFKWNDLLFCNLDCYTSAILKNQKGADVKHRVACSLSPTWHKDCVHSVQD
- soluble on expression in E. coli: soluble

Sequence: MGRIFLDHIGGTRLFSCANCDTILTNRSELISTRFTGATGRAFLFNKVVNLQYSEVQDRVMLTGRHMVRDVSCKNCNSKLGWIYEFATEDSQRYKEGRVILERALVRESEGFEEHVPSDNS
- soluble on expression in E. coli: soluble

Sequence: MAGDPMNEEQRKSTSIDILAERDKKTKDYSKYFEHVYQPPSLKEARKRGKEEVNYNDDFQIDEKYRNMGQGKTFLIKTYGCQMNAHDTEVMAGILGALGYTPTEDINHADVILINTCAIRENAENKVFSEIGNLKHLKKEKPETVIGVCGCMSQEESVVNKILKSYQNVDMIFGTHNIHRLPEILEEAYLSKAMVVEVWSKEGDVIENLPKVREGNIKAWVNIMYGCDKFCTYCIVPFTRGKERSRRPEDIIDEVRDLARQGYKEITLLGQNVNAYGKDIDGLAYGLGDLLEDISKIDIPRVRFTTSHPWDFTDRMIEVIANGGNIVPHVHLPVQSGNNAVLKIMGRKYTRESYLDLVNRIKTHIPNVALTTDIIVGYPNETDEQFEETLTLYDEVEFEHAYTYIYSQRDGTPAAKMNDNVPLDVKKDRLQQLNKKVACYSERAMQQYEGQTVQVLCEGVSKKDDTVLSGYTSKNKLVNFKAPKSMIGKIVNVYIDEAKQFSLNGTFISVNDKTVVTQLEHHHHHH
- soluble on expression in E. coli: soluble

Sequence: MSLSAKSSLKEVAELAGVGYATASRALSGKGYVSPQTREKVQAAAKELNYVPNQLAKALREHRSALVGVIVPDLSNEYYSESLQTIQQDLKAAGYQMLVAEANSVQAQDVVMESLISIQAAGIIHVPVVGSIAPEGIPMVQLTRGELGPGFPRVLCDDEAGFFQLTESVLGGSGMNIAALVGEESLSTTQERMRGISHAASIYGAEVTFHFGHYSVESGEEMAQVVFNNGLPDALIVASPRLMAGVMRAFTRLNVRVPHDVVIGGYDDPEWYSFVGAGITTFVPPHEEMGKEAVRLLVDLIENPELPTGDVVLQGQVILRGSSTHEGHHHHHH
- soluble on expression in E. coli: soluble

Sequence: QVQLVQSGPELKKPGETVKISCKASGYMFTNYGMNWVKQAPGKALKWMGWINPYTGESTFADDFKGRFAFFLETSATTAYLQINNLKNEDTATYFCARGTTIVWAMDYWGQGTSVTVSSASTKGPSVFPLAPSSKSTSGGTAALGCLVKDYFPEPVTVSWNSGALTSGVHTFPAVLQSSGLYSLSSVVTVPSSSLGTQTYICNVNHKPSNTKVDKKVEPLSCDKTHT
- soluble on expression in E. coli: soluble

Sequence: MAREVKLTKAGYERLMQQLERERERLQEATKILQELMESSDDYDDSGLEAAKQEKARIEARIDSLEDILSRAVILEEGSGEVIGLGSVVELEDPLSGERLSVQVVSPAEANVLDTPMKISDASPMGKALLGHRVGDVLSLDTPKGRREFRVVAIHG
- soluble on expression in E. coli: soluble

Sequence: MGSDKIHHHHHHMTVLIKEEDFIQSIADGIQFISYYHPVDYIRHLARAYEREESPAARDAMAQILTNSRMCAEGKRPLCQDTGIVNVFLKVGMNVRFDTQRTLQELCDEGVRRGYLNPDNPLRASVLDDPLFARKNTRDNTPCILHVELVPGDTVDVQVASKGGGSENKSKFVMLNPSDSLVDWVLKTVPTMGAGWCPPGMLGIGVGGTAEKAMLMAKQSLMEDIDMYELLARGPQSKLEELRIELYEKVNALGIGAQGLGGLTTVLDVKISTFPTHAASKPVAMIPNCAATRHAHFVLDGSGPARLDPPSLSEWPEVHWAPDYNKSRQVDLDTLTKEEVASWKPGQTLLLSGKMLTGRDAAHKRIQDMLSKGESLPVDFTNRVIYYVGPVDPVRDEVVGPAGPTTATRMDKFTDMMLAQTGLISMIGKSERGPVAIESIRKHGSAYLMAVGGAAYLVSKAIRNAKVLAFEDLGMEAIYEFDVKDMPVTVAVDSQGTSVHTTGPKEWQARIGKIPVAVA
- soluble on expression in E. coli: not soluble

Sequence: MGSDKIHHHHHHMILKTKLFGKVYQFTSVKEVLAKANEEKSGDKLAGVAANSAEERVAAKVVLSELSLNDLFNNPVVDYDEDEVTRIIIDQVNMRIFESIKHWTVAELREFILSSETTDFDIKRISRGLTSEMIAAVCKLMSNMDLIVGAKKINIEKTANTTIGRPGTFSNRLQPNHPTDNVDGIMASVMEGLSYGAGDALIGLNPVDDSTESVKRILNKFEEFRSEWEIPTQTCVLAHVTTQMEAMRQGAPTGLVFQSIAGSEKGNTAFGLNAEILAEAQDLALHSGQAAGPNVMYFETGQGSELSSEANFGADQVTMEARCYGLAKKFDPYIVNTVVGFIGPEYLYDSKQVIRAGLEDHFMGKLTGISMGCDVCYTNHMKADQNDMENLAMLLATAGCTYIMGIPHGDDVMLNYQTTGFHETATIRETLGLRPIKEFEEWMEKMGLMENGKLTSRAGDASVFIK
- soluble on expression in E. coli: not soluble
